From US20200040083A1
Where “and” joins values, the source holds several entries; their conditions need not be identical. Equal values may be shown once.

Biological target: IL-2Rβ (R&D Systems, Minneapolis, Minn.) (UniProt P14784)
Assay: Octet (BLI), AHC capture
Settings: Fc fusion

Chain of IL-2Rβ (R&D Systems, Minneapolis, Minn.) (P14784 27-240): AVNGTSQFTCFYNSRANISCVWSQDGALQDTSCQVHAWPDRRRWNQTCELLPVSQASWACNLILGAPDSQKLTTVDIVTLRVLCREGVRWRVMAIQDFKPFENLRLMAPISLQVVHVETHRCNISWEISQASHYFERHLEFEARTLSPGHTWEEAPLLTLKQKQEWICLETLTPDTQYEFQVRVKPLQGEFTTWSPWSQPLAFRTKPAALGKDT

Row | Kd | Substance
1 | 6.76 nM and 3 nM | XENP21478 (from UniProt P0DOX5 218-449)
2 | 3.06 nM and 3 nM | XENP21479 (from UniProt P0DOX5 218-449; P40933 49-162)
